Test results from patent US20220184177A1 (SAINT JOSEPH S UNIVERSITY, published 2022).
Where no end group is shown, it is not given here. The star is where a group is joined. Biotin = O=C1N[C@H]2[C@H](CS[C@H]2CCCCC(=O)*)N1

B1: CAPER peptide HCC1.3 (amino acid residues 356-400) (peptide)
peptide: Biotin-RLQLMARLAEGTGLQIPPAAQQALQMSGSLAFGAVADLQTRLSQQ
notes: Custom synthesized (LifeTein), crude purity, N-terminal biotin; A TAT control peptide was run alongside, so the TAT form is possible
B2: His-tagged recombinant c-Jun (other, UniProt P05412 1-331, looked up)
chain: MTAKMETTFYDDALNASFLPSESGPYGYSNPKILKQSMTLNLADPVGSLKPHLRAKNSDLLTSPDVGLLKLASPELERLIIQSSNGHITTTPTPTQFLCPKNVTDEQEGFAEGFVRALAELHSQNTLPSVTSAAQPVNGAGMVAPAVASVAGGSGSGGFSASLHSEPPVYANLSNFNPGALSSGGGAPSYGAAGLAFPAQPQQQQQPPHHLPQQMPVQHPRLQALKEEPQTVPEMPGETPPLSPIDMESQERIKAERKRMRNRIAASKCRKRKLERIARLEEKVKTLKAQNSELASTANMLREQVAQLKQKVMNHVNSGCQLMLTQQLQTF
notes: Captured on BLI tips by an anti-his tag antibody; also called c-Jun receptor; c-Jun component of AP-1; not shown: his tag
B3: CAPER peptide Scrambled (peptide)
peptide: Biotin-VGDALQGLRLFSTQASIGAQMEQLAAQPLRAGQMLQLAQASPLRT
notes: Control peptide; also called CAPER Scrambled Peptide; CAPER scrambled peptide
B4: Recombinant Full-Length CAPER HCC1.3 (other)
chain: ADDIDIEAMLEAPYKKDENKLSSANGHEERSKKRKKSKSRSRSHERKRSKSKERKRSRDRERKKSKSRERKRSRSKERRRSRSRSRDRRFRGRYRSPYSGPKFNSAIRGKIGLPHSIKLSRRRSRSKSPFRKDKSPVREPIDNLTPEERDARTVFCMQLAARIRPRDLEEFFSTVGKVRDVRMISDRNSRRSKGIAYVEFVDVSSVPLAIGLTGQRVLGVPIIVQASQAEKNRAAAMANNLQKGSAGPMRLYVGSLHFNITEDMLRGIFEPFGRIESIQLMMDSETGRSKGYGFITFSDSECAKKALEQLNGFELAGRPMKVGHVTERTDASSASSFLDSDELERTGIDLGTTGRLQLMARLAEGTGLQIPPAAQQALQMSGSLAFGAVADLQTRLSQQTEASALAAAASVQPLATQCFQLSNMFNPQTEEEVGWDTEIKDDVIEECNKHGGVIHIYVDKNSAQGNVYVKCPSIAAAIAAVNALHGRWFAGKMITAAYVPLPTYHNLFPDSMTATQLLVPSRR
notes: Bought from R&D Systems; also called full-length recombinant CAPER; CAPER isoform HCC1.3
B5: CAPER peptide HCC1.4 (amino acid residues 356-400) (peptide)
peptide: Biotin-RLQLMARLAEGTGLQIPPAAQQALQMSGSLAFGAVAEFSFVIDLQ
notes: Custom synthesized (LifeTein), crude purity, N-terminal biotin
B6: TAT Control Peptide (peptide)
peptide: Biotin-YGRKKRRQRRR
notes: Control peptide; also called TAT only control

Tests used:
[1] = target: B2; experiment: BLI (Octet), his-tagged c-Jun captured by anti-his antibody, 1:1 model
[2] = target: T1, Estrogen Receptor α (UniProt P03372 1-595, limits assumed); experiment: binding kinetics on ERα (method not described, presumably BLI)
T1 construct: also called ERα; ERa
T1 sequence (looked up): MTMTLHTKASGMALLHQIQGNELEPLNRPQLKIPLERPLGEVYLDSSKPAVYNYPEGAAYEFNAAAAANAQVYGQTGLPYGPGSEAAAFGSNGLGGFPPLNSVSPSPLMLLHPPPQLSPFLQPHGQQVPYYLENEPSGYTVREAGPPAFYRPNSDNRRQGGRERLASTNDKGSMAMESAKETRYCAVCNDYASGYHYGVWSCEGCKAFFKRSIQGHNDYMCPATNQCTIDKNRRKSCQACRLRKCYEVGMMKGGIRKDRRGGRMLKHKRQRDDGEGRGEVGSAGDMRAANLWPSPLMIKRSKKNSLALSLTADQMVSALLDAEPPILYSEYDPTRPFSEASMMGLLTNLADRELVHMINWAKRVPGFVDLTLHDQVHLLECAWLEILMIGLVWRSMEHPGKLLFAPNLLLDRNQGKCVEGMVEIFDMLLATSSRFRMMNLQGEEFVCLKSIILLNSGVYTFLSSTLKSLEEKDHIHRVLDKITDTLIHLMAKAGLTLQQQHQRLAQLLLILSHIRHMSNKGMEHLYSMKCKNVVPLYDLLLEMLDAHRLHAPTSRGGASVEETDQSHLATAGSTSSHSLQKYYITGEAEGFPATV

[3] = target: B4; experiment: BLI (Octet), his-tagged c-Jun captured by anti-his antibody, 1:1 model
[4] = target: B2; experiment: BLI (Octet), His-tagged c-Jun captured on anti-His tips, peptide in solution
[5] = target: B2; experiment: BLI, his-tagged c-Jun captured by anti-his antibody

Binder	Kd [1]	koff [1]	kon [1]	Kd [2]	koff [2]	kon [2]	further results
B1	8.89 nM	0.000337 s⁻¹	37900 M⁻¹ s⁻¹	4.5 nM	0.000115 s⁻¹	25400 M⁻¹ s⁻¹	–
B2	–	–	–	–	–	–	Kd [3]: 0.18 nM; koff [3]: 5.66e-05 s⁻¹; kon [3]: 312000 M⁻¹ s⁻¹
B3	–	–	–	–	–	–	binding result [4]: no binding (tested: 1000 (no unit printed on the sheet))
B4	–	–	–	0.02 nM	2.34e-05 s⁻¹	937000 M⁻¹ s⁻¹	–
B5	25.6 nM	0.00098 s⁻¹	38300 M⁻¹ s⁻¹	30.2 nM	0.00172 s⁻¹	57100 M⁻¹ s⁻¹	–
B6	–	–	–	–	–	–	binding result [5]: no binding
